Experiments:
Bak = biological target: T1, Bak (Homo sapiens, UniProt Q16611); assay: Bak-induced apoptosis in transfected cells; type: cell-based; design: expressed in transfected cells; details: CSM14.1 or PC-3 cells, transient co-transfection
T1 sequence (Q16611 1-211): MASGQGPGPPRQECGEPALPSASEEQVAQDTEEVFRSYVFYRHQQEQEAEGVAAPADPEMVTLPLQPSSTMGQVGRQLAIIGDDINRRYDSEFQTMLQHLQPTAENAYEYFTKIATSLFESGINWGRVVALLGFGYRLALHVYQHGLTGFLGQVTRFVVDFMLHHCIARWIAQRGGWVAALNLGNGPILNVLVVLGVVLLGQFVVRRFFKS
Procedure: (A-D) CMS14.1 neuronal cells were transfected with plasmids encoding Flag-HN peptide or Flag-control (27-amino-acid) peptide, together with GFP-encoding plasmid at 4:1 ratio. Cells were either cultured without further treatment (open bars) or subjected to various apoptotic stimuli for various times (dark bars), including (A) STS for 8 h (dark symbols=Flag-control; open symbols=Flag-HN), (B) Serum-deprivation for 72 h, (C) 10 joules/m2 Uvirradiation followed by 24 h culture, and (D) 50 ng/ml TNFa in […] for 24 h. Cells were then fixed and stained with DAPI to determine the percentage of apoptotic cells, evaluating=200 GFP-positive cells per sample (mean±SD; n=3). (inset) Lysates prepared from replicate cultures of transfected cells were normalized for total protein content and analyzed by immunoblotting using anti-Flag (top) and anti-tubulin (bottom) antibodies, confirming production of similar amounts of Flag-control and Flag-HN peptides. […] (Upper panel) After 72 hr, cell lysates were prepared and 100 ug was analyzed by immunoblotting using anti-HN and anti-tubulin (as a loading control) antibodies. (Lower panel) At 72 hr after siRNA transfection, SF268 cells were cultured with 0.1 μM STS for 8 hrs, then % apoptosis was determined (mean+std dev; n=3). […] Apoptosis (%) was measured 48 hrs later among GFP-positive cells. […]

t-Bid = biological target: T2, t-Bid (Homo sapiens, UniProt P55957); assay: Co-immunoprecipitation of Humanin with t-Bid in 293T cells; type: binding; design: expressed in transfected cells
T2 sequence (P55957 61-195 limits assumed): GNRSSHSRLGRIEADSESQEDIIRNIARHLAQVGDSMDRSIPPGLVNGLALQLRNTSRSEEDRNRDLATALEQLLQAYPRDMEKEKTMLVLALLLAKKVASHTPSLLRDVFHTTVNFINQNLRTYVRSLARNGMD
Procedure: The lysates were immunoprecipitated with (A) anti-GFP antibody or (B) anti-tBid antibody and blotted with (A) anti-HA antibody or (B) anti-GFP antibody. The data shown were obtained using the cytosolic form of Humanin; however, both cytosolic and mitochondrial forms of Humanin were tested and the results were the same.
The following experiments confirm an interaction between Humanin and Bax. Similar experiments were performed to confirm an interaction between Humanin and Bid.

endogenous Bax = biological target: T3, endogenous Bax (Mus musculus, UniProt Q07813); assay: Co-immunoprecipitation of endogenous Humanin and Bax from mouse testis lysates; type: binding; details: endogenous peptide and protein
T3 construct: from tissue; host or cells: testes of three-week-old mice
Description: (A) HEK293T cells were transfected with pcDNA3-myc plasmids encoding Bax or other Bcl-2 family proteins with GFP, GFP-HN, or GFP-HN(C8P). Cell lysates were immunoprecipitated with polyclonal anti-GFP antibody. The immunoprecipitates or the lysates were blotted with anti-myc or anti-GFP antibodies, respectively. The slower migrating form of GFP seen in lane 1 (asterisk)represents an alternative form of GFP produced from the wild-type (control) p-EGFP-Cl plasmid (http://clonotech.com). (B) Testes of three-week-old mice were homogenized in lysis buffer (0.1% Triton X-100, 50 mM Tris-HCl, pH7.5, 1 mM EDTA, plus protease inhibitor cocktail). The lysates were immunoprecipitated with control rabbit serum or polyclonal anti-mouse Bax antibody. The immunoprecipitates or the lysates were subjected to electrophoresis in Tris/Tricine gels (16% T, 3% C), electroblotted to PVDF membrane, and immunoblotted with polyclonal anti-HN antibody or monoclonal anti-Bax antibody 6A7 (Trevigen). […]
A rabbit polyclonal antibody raised against Humanin peptide (P04, gift of Dr. Ikuo Nishimoto) was used to examine whether endogenous Humanin peptide interacts with endogenous Bax polypeptide. […] In addition, endogenous Humanin was determined to be a cytosolic protein, based on subcellular fractionation experiments.

T3 sequence (Q07813 whole entry): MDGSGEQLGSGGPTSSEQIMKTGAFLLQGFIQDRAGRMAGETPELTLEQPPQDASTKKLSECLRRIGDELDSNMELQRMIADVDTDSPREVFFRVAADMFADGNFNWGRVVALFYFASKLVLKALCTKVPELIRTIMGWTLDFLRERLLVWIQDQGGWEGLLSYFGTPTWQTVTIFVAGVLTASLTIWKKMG

Row | Substance | Bak-induced apoptosis (Bak) | interaction with t-Bid by co-immunoprecipitation (t-Bid) | co-immunoprecipitation with Bax from mouse testis lysates (endogenous Bax)
1 | GFP-HN: Wild-type full-length Humanin fused to Green Fluorescent Protein | not affected |  | 
2 | Humanin: 24 amino acid polypeptide, cytosolic form of human Humanin (SEQ ID NO:2); used as synthetic peptide or expressed fusion |  | found to interact | co-immunoprecipitated

— patent US7422862B2, “Methods for identifying modulators of apoptosis” (The Burnham Institute, priority 2001, dated 2008)
